Reference: patent publication US5756291, “Aptamers specific for biomolecules and methods of making” (Gilead Sciences, Inc.)

How the values were obtained:
[1] = target: T1, thrombin (alpha, Factor IIa) (Homo sapiens, UniProt P00734;P00734 P00734:328-363,P00734:364-622); assay: inhibition
[2] = target: T1, thrombin (alpha, Factor IIa); assay: inhibition; 100 nM; no DNA 23 s
[3] = target: T1, thrombin (alpha, Factor IIa); assay: filter
serum albumin = serum albumin (Homo sapiens, UniProt P02768 P02768:25-609); assay: EMSA; 500 nM protein, 4 C
trypsin = trypsin (UniProt P00760 P00760:24-246); assay: EMSA; 500 nM protein, 4 C
chymotrypsin = chymotrypsin (UniProt P00766;P00766;P00766 P00766:1-13,P00766:16-146,P00766:149-245); assay: EMSA; 500 nM protein, 4 C
prothrombin = prothrombin (Homo sapiens, UniProt P00734 P00734:44-622); assay: EMSA; 500 nM protein, 4 C
Factor X = Factor X (UniProt P00742;P00742 P00742:41-179,P00742:183-488); assay: EMSA; 500 nM protein, 4 C; conditions: tags: Haematologic Technologies HCXA-0060
Factor X, sequence (P00742 41-179, chain 1 of 2): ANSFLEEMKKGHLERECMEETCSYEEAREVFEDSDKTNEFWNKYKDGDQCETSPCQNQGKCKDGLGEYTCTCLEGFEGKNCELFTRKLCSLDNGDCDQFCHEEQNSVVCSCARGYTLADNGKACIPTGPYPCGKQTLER
Factor X, sequence (P00742 183-488, chain 2 of 2): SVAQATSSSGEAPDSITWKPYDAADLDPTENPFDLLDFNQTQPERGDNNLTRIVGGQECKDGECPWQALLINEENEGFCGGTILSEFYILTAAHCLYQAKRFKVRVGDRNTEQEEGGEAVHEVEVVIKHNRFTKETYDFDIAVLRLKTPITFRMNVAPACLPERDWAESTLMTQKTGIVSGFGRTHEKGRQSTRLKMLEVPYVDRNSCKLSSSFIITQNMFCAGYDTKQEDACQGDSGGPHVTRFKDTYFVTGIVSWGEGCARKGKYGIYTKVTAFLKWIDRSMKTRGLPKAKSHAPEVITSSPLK

trypsin, sequence (P00760 24-246, one chain of several): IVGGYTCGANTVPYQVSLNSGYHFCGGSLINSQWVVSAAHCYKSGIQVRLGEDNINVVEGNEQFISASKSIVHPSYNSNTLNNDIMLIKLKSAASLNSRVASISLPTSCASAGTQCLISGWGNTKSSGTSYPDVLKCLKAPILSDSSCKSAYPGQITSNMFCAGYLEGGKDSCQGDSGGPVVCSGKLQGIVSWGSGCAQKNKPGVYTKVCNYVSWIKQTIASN
serum albumin, sequence (P02768 25-609, one chain of several): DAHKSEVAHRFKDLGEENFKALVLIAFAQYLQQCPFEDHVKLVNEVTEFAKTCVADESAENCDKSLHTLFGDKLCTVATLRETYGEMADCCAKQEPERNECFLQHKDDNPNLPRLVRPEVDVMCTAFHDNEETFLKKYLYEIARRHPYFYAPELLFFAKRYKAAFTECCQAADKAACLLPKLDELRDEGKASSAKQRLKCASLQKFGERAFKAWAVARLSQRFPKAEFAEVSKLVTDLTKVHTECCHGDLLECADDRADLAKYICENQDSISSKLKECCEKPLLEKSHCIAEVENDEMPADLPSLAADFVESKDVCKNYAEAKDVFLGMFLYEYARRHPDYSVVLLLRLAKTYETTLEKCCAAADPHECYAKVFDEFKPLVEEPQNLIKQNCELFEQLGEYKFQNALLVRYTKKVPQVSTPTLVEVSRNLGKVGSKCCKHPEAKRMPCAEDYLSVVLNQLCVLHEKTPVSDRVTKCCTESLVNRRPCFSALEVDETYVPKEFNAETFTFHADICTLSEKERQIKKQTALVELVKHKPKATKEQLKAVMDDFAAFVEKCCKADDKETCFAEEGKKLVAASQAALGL

Binder	Ki [1]	activity [2]	other results
GGTTGGUGUGGTTGG (ssDNA, dU at 7 and 9) [15-mer dU7 dU9]	15 nM	–	–
GGTTGGTGTGGTTGG (ssDNA, Z 5-(1-propynyl)-2'-deoxyuridine [9 (Z = 5-(1-propynyl)-2'-deoxyuridine)]) [15-mer propynyl-dU 9]	–	120 s clot time	–
GGUTGGTGTGGUTGG (ssDNA, dU at 3 and 12) [15-mer dU3 dU12]	80 nM	–	–
GGTTGGGCTGGTTGGGTTGGG (ssDNA) [21-mer thrombin aptamer]	~100 nM	–	Kd [3]: ~350 nM
GGTTGGTGTGGTTGG (ssDNA, Z 5-(1-propynyl)-2'-deoxyuridine [7 (Z = 5-(1-propynyl)-2'-deoxyuridine)]) [15-mer propynyl-dU 7]	–	118 s clot time	–
GGTTGGTGTGGTTGG (ssDNA, Z 5-(1-propynyl)-2'-deoxyuridine [12 (Z = 5-(1-propynyl)-2'-deoxyuridine)]) [15-mer propynyl-dU 12]	–	129 s clot time	–
GGTTGGTGTGGTTGG (ssDNA, Z 5-(1-propynyl)-2'-deoxyuridine [4 (Z = 5-(1-propynyl)-2'-deoxyuridine)]) [15-mer propynyl-dU 4]	–	187 s clot time	–
GGTTGGTGTGGTUGG (ssDNA, U13 is 5-(1-pentynyl)-2'-deoxyuridine) [15-mer pentynyl-U13]	20 nM	–	–
pentynyl-dU clone 24 60-mer (ssDNA, X 5-pentynyl-dU; T in 3' constant region also 5-pentynyl-dU; T in 5' constant region unmodified [23,25,27,30,32,35,37,38 (X = 5-pentynyl-dU); 44,45,46,50,58 (3' constant region T = 5-pentynyl-dU)]) DNA: TAGAATACTCAAGCTTCGACGGTATATAGTATAGTATTGGCAGTTTGGATCCCCGGGTAC	–	–	Kd [3]: 400 nM; binding result (serum albumin): no binding; binding result (trypsin): no binding; binding result (chymotrypsin): no binding; binding result (prothrombin): no binding; binding result (Factor X): no binding
GGTTGGTGTGGTTGG (ssDNA, Z 5-(1-propynyl)-2'-deoxyuridine [3 (Z = 5-(1-propynyl)-2'-deoxyuridine)]) [15-mer propynyl-dU 3]	–	138 s clot time	–
